Data: patent US7785835

Tests used:
vitronectin [1] = target: vitronectin (UniProt P04004); test: cell-based or functional assay
vitronectin [2] = target: vitronectin (UniProt P04004); test: competition binding assay, displacement of [^125I]-IGF-II from VN-coated wells (300 ng/well)

Sequence of insulin-like growth factor-II (P01344 25-91 limits assumed): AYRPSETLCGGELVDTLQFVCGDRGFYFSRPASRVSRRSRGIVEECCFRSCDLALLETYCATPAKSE
Sequence of vitronectin (P04004 20-478 limits assumed): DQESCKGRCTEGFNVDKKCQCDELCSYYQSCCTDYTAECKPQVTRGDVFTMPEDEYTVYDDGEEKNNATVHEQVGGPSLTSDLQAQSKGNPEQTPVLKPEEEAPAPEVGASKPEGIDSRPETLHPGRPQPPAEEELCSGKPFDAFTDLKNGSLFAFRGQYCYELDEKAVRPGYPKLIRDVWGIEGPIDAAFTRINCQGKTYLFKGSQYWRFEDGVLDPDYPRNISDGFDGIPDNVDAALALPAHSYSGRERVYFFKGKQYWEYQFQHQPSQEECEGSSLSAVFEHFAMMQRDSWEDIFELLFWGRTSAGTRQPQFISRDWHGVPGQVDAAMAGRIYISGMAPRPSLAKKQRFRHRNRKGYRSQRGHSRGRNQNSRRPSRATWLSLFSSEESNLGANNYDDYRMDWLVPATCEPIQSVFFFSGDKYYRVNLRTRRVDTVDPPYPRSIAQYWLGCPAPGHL

## insulin-like growth factor-II (from UniProt P01344 25-91) (ligand)
Vitronectin [1]
  incorporation of [^3H]-leucine into protein in human keratinocytes, % above control; 3 ng IGF-II pre-bound to VN coated wells: 19%
  incorporation of [^3H]-leucine into protein in human keratinocytes, % above control; 10 ng IGF-II pre-bound to VN coated wells: 29%
  incorporation of [^3H]-leucine into protein in human keratinocytes, % above control; 30 ng IGF-II pre-bound to VN coated wells: 39%
  incorporation of [^3H]-leucine into protein in human keratinocytes, % above control; 100 ng IGF-II pre-bound to VN coated wells: 51%
  incorporation of [^3H]-leucine into protein in human keratinocytes, % above control; 300 ng IGF-II pre-bound to VN coated wells: 70%
  incorporation of [^3H]-leucine into protein in human keratinocytes, % above control; 1000 ng IGF-II pre-bound to VN coated wells: 101%
  synergistic effect in protein synthesis above the calculated additive effect of VN alone and IGF-II alone: 5 to 46%
Vitronectin [2]
  IC50: 9.6 nM
